This data set relates to MS2 coat protein. Put plainly: apparent KD of MS2 coat protein; designed switch direction (-1 OFF switch, 1 ON switch): -1; higher = weaker reporter binding. The method in brief: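 RNA switches sharing common flanks were transcribed by stalled E. coli RNA polymerase on Illumina chips. A doubling series of SNAP-549-labelled MS2 coat protein, from 0.7 or 1.5 nM to 3 µM, was applied in Tris-HCl pH 7.5 buffer with KCl, MgCl2, BSA, DTT, tRNA and Tween-20. Each step lasted 0.8–1.5 h at the bottom of the series and 10–20 min at the top. Normalised cluster fluorescence was curve-fitted, giving apparent KD as the per-design median over clusters.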

The mark [1] stands for this setting: input ligand: microRNA oligo, concentration not stated.
The mark [2] stands for this setting: Eterna round: R95, input ligand: FMN 200 uM.
Setting [3] is: Eterna round: R95, input ligand: microRNA oligo, concentration not stated.
The mark [4] stands for this setting: Eterna round: R95, input ligand: none.

“ACAUGAGGAUCACCCAUGUGACCACAAUGGCUGAUGUAACAACAGGAUAUUCGUGAAUAUCUAACGAAGAAGGGUUAUGACUGG [Deportation 63 - Jieux - Exclusion NG 3] (Eterna round: R96, puzzle: Exclusion NG 3)”: the “apparent KD of MS2 coat protein” value under setting [1] was found to be 0.0514 µM.

Consider “ACAUGAGGAUCACCCAUGUGCACGUAAUGGCUCAUGUAGAGUCAGGAUAUGCGUGGCGAACUCGCGCAGAAGGGACAAGACUGG [Deportation 20 - Jieux - Exclusion NG 3] (Eterna round: R96, puzzle: Exclusion NG 3)”, for which the “apparent KD of MS2 coat protein” value is, setting by setting: (input ligand: FMN 200 uM) 0.0235 µM; under setting [1], 0.0256 µM; (input ligand: none) 0.0346 µM.

In the case of “ACAUGAGGAUCACCCAUGUUUGGCUGGUUUUCUCCGGCUGUCGAGGAUAUAGUCCGGUAUCCGCGCUAGAAGGUGAGGGCUGGC [Aenatbe mod 5] (Eterna round: R96, puzzle: Exclusion NG 3)”, the “apparent KD of MS2 coat protein” value came to 0.0145 µM (input ligand: FMN 200 uM), 0.0131 µM under setting [1] and 0.0204 µM (input ligand: none).

With “ACAUGUCAUUGAGGAUAUCGCACACAUGAGGAUCACCCAUGUAAACGGAUGCUCUUACGUGGGUUCGAGAAGGCGAUGUACAUU [Ex NG2 #95] (Eterna round: R96, puzzle: Exclusion NG 2)”, the “apparent KD of MS2 coat protein” value (input ligand: FMN 200 uM) amounted to 0.458 µM, the “apparent KD of MS2 coat protein” value under setting [1] was determined as 0.112 µM and the “apparent KD of MS2 coat protein” value (input ligand: none) came to 0.142 µM.

Regarding “ACAUGUCAUUGAGGAUAUCGCACACAUGAGGAUCACCCAUGUAAACGGAUGCUCUUUCGUGGUUUCGAGAAGGCGAUGUACAUU [Ex NG2 #97] (Eterna round: R96, puzzle: Exclusion NG 2)”, the “apparent KD of MS2 coat protein” value (input ligand: FMN 200 uM) is 0.438 µM, the “apparent KD of MS2 coat protein” value under setting [1] was determined as 0.335 µM and the “apparent KD of MS2 coat protein” value (input ligand: none) was 0.182 µM.

Turning to “ACAUGUUGCGCAGGAUAUGGGACACAUGAGGAUCACCCAUGUGGCUACAUGUCAUACCAAGCGUCUCAGAAGGGUGUUAACAUG [Ex NG2 #36] (Eterna round: R96, puzzle: Exclusion NG 2)”, the “apparent KD of MS2 coat protein” value (input ligand: FMN 200 uM) is 0.0201 µM, the “apparent KD of MS2 coat protein” value under setting [1] worked out at 0.014 µM and the “apparent KD of MS2 coat protein” value (input ligand: none) was 0.0177 µM.

As for “ACCACCUUAGUCAGGAUAUAGCUUCUAGCAAGAUACUAGAAGGGACAUGAGGAUCACCCAUGUAAAGGUGCUAA [Ramais] (puzzle: Brourd's mod of Exclusion 4)”, the “apparent KD of MS2 coat protein” value runs as follows: under setting [2], 0.0253 µM; under setting [3], 0.029 µM; under setting [4], 0.0272 µM.

“ACCAGCAUACGGAGAUCCAACAUGAGGAUCACCCAUGUCUGGAAAGCUUUUUGCUUGUCUUAUCCUCCUCUGUGUGC [Design #2] (Eterna round: R97, puzzle: Sensor, turn-off variant 1)”: the “apparent KD of MS2 coat protein” value (input ligand: FMN 200 uM) was 0.0175 µM and the “apparent KD of MS2 coat protein” value (input ligand: none) worked out at 0.0166 µM.

As to “ACCAGUAUAUGGAGAUUUUACAUGAGGAUCACCCAUGUUGGGACAGCUUUUUGCUUGUCUUAUCCUACUUUGUGUGU [Design #3] (Eterna round: R97, puzzle: Sensor, turn-off variant 1)”, the “apparent KD of MS2 coat protein” value amounted to 0.0322 µM (input ligand: FMN 200 uM) and 0.036 µM (input ligand: none).

Turning to “ACCAGUGGAGGAUAUACAUGAGGAUCACCCAUGUGUUGAAUAGGUGGAGAACCACAAAGUAGAAGGCCACUGGA [jl-ex3-4.79 jandersonlee automod] (Eterna round: R97, puzzle: Exclusion 3)”, the “apparent KD of MS2 coat protein” value (input ligand: FMN 200 uM) was 1 µM and the “apparent KD of MS2 coat protein” value (input ligand: none) stood at 0.0766 µM.

“ACCAUUACCACACCCUCUAUACAUGAGGAUCACCCAUGUUCUGAGGAUAUCAUCGCUCGCCGCGUUGAGAAGGCAGAGCAUUAA [Tiisri] (Eterna round: R96, puzzle: Exclusion NG 3)”: the “apparent KD of MS2 coat protein” value stood at 0.0508 µM (input ligand: FMN 200 uM), 0.00921 µM under setting [1] and 0.0151 µM (input ligand: none).

In the case of “ACCAUUUUACGAUAUGUGCACAUGAGGAUCACCCAUGUUCCGAUAAACAUUUGAAGUACAGCAGGCUGCUCGAUCUG [Eternabot (L2) Solution 45] (Eterna round: R97, puzzle: Sensor, turn-off variant 1)”, the “apparent KD of MS2 coat protein” value is, setting by setting: (input ligand: FMN 200 uM) 0.0942 µM; (input ligand: none) 0.0874 µM.

“ACCUCACAUGAGGAUCACCCAUGUAAGGAUAUCUUCGCUUUGACGUUGCUCUAUGCGAAGAGAAGGUACACGGA [Xeteed] (Eterna round: R97, puzzle: Exclusion 1)”: the “apparent KD of MS2 coat protein” value by setting is: (input ligand: FMN 200 uM) 0.0848 µM; (input ligand: none) 0.0206 µM.

As to “ACCUCACAUGAGGAUCACCCAUGUCAGGAUAUCUAAUAUAGUAGCGUUCCCGACGCUAAGAGAAGGGACAUUAA [EX1 #32] (Eterna round: R97, puzzle: Exclusion 1)”, the “apparent KD of MS2 coat protein” value was 0.023 µM (input ligand: FMN 200 uM) and 0.0139 µM (input ligand: none).

On to “ACCUCACAUGAGGAUCACCCAUGUUAGGAUAUCUCGGCGCCCUGCAGGCAGUGGCACCAGAGAAGGAACGUGCA [Xeindiisti] (puzzle: Exclusion 1)”, for which the “apparent KD of MS2 coat protein” value under setting [3] was 0.0204 µM.

For the sequence “ACGCCUCCUGUUAGGAUAUGCAUCGGGCUUCCGCAGCAGAAGGAACAUGAGGAUCACCCAUGUCAAAUAAAAUC [Raleed] (puzzle: Brourd's mod of Exclusion 4)”, under setting [3], the “apparent KD of MS2 coat protein” value was 0.017 µM.

For the sequence “ACGCGAUAUGGCGUAACGCGACAUGAGGAUCACCCAUGUAACGAGGAUAUGAUCUCGAGAGAGGGUCAGAAGGCGUUACAAUAU [Eternabot solution 23] (Eterna round: R96, puzzle: Exclusion NG 3)”, the “apparent KD of MS2 coat protein” value turned out to be 0.13 µM (input ligand: FMN 200 uM), 0.0707 µM under setting [1] and 0.0743 µM (input ligand: none).

In the case of “ACGCGUGGCUAGGAUAUGCAGAAAUCUAGCCAGGCAGAAGGAGCCACAUGAGGAUCACCCAUGUGGUGAUCCUC [eternacac ex6r4 sub1] (Eterna round: R97, puzzle: Exclusion 6)”, the “apparent KD of MS2 coat protein” value by setting is: (input ligand: FMN 200 uM) 0.0108 µM; (input ligand: none) 0.00998 µM.

For “ACGGUGGUCCGAGAACAUGAGGAUCACCCAUGUGACAAAACCAAGGAUAUAGACGGACCGCCCGACUAGAAGGUGGAAAGAAAA [Aronlema] (Eterna round: R96, puzzle: Exclusion NG 3)”, the “apparent KD of MS2 coat protein” value by setting is: (input ligand: FMN 200 uM) 0.0902 µM; under setting [1], 0.0411 µM; (input ligand: none) 0.0779 µM.

As to “ACGUAUCAUGUCAGGAUAUAGCUAGCUACGGCUAGCUAGAAGGGACAUGAGGAUCACCCAUGUCAAAGAUACGU (puzzle: Brourd's mod of Exclusion 4)”, the “apparent KD of MS2 coat protein” value under setting [3] stood at 0.0132 µM.

“ACGUGAUACCUGUCGGUGGACAUGAGGAUCACCCAUGUAAGCUUUUUGCUCGUCUUAUAACCCGGUGACAGACCUUC [Racequbebe] (puzzle: Sensor v3, turn-off variant 1)”: the “apparent KD of MS2 coat protein” value runs as follows: under setting [2], 0.0977 µM; under setting [3], 0.544 µM; under setting [4], 0.142 µM.

As for “ACGUGAUAUCUGUCGGUGGACAUGAGGAUCACCCAUGUAAGCUUUUUGCUCGUCUUACAACCCGGUGACAGACCUUC [Essodiis] (puzzle: Sensor v3, turn-off variant 1)”, the “apparent KD of MS2 coat protein” value was determined as 0.138 µM under setting [2], 0.275 µM under setting [3] and 0.166 µM under setting [4].

These data come from the supplement of paper PMC9170038.
